Source: patent US20200308292A1

Key:
[1] = target: human insulin receptor extracellular domain (HIR ECD) (human) (UniProt P06213); assay: ELISA, HIR ECD plated; against the HIR Ab as reference
[2] = target: human insulin receptor extracellular domain (HIR ECD) (human) (UniProt P06213); assay: ELISA, HIR ECD plated, biotinylated anti-human IgG detection

Substance | reduction in receptor binding affinity [1] | EC50 [2]
GUSB-HIR Ab fusion protein (GUSB fused to the amino terminus of the HIR Ab heavy chain) (from UniProt P08236 23-633) (antibody) | 95% | 4.8 nM
HIR Ab-GUSB fusion protein (GUSB fused to the carboxyl terminus of the HIR Ab heavy chain) (from UniProt P08236 23-633) (antibody) | – | 0.81 nM
